Experimental findings from publication doi:10.1101/2023.04.27.538407 are described below.

In experiment [1] the target is MYPT1-C2 peptide 35, R693 replaced by alanine (human). Description: peptide or protein array.
Experiment [2] deals with MYPT1-C2 peptide 35, S695 replaced by alanine (human). Description: peptide or protein array.
Experiment [3] addresses MYPT1-C2 peptide 35, R694 replaced by alanine (human). Description: peptide or protein array.
For experiment [4], the target named is MYPT1 (endogenous, human platelets) (human (endogenous in platelets)). Description: proximity ligation.
Chain of MYPT1 (endogenous, human platelets) (human (endogenous in platelets)) (O14974 whole entry): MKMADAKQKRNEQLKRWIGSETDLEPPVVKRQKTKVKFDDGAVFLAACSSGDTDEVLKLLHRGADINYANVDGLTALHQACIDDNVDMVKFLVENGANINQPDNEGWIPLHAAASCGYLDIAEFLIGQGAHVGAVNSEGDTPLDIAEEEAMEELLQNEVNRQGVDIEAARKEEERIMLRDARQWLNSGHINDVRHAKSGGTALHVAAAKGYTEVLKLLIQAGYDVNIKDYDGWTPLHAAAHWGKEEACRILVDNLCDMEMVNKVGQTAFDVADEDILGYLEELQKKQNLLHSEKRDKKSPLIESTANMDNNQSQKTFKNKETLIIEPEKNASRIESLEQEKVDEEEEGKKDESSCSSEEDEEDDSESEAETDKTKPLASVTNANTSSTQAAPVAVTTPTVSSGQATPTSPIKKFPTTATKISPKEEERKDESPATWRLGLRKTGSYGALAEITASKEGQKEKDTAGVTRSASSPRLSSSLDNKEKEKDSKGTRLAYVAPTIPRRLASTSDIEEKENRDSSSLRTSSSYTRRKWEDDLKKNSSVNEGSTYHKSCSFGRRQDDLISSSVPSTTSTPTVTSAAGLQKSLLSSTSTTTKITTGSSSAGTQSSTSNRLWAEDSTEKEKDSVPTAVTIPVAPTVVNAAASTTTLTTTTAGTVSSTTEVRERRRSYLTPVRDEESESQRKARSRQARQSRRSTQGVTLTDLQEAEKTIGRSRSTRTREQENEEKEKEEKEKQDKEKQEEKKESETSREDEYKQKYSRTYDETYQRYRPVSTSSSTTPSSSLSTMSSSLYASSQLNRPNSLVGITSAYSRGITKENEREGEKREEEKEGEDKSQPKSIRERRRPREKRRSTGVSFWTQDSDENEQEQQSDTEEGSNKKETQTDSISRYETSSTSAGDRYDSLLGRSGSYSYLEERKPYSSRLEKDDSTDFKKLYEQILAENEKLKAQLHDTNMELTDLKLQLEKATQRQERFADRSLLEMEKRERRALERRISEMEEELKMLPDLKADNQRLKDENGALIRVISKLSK

Take “His-tagged PKA-RIIβ (from UniProt P31323 1-418) (natural protein)”: the reduction of binding against the non-mutated peptide in experiment [1], in experiment [2] and in experiment [3] was 50% throughout.

As to “His-tagged PKA-RIβ (from UniProt P31321 1-381) (natural protein)”, the reduction of binding against the non-mutated peptide in experiment [1], in experiment [2] and in experiment [3] was 50% each time.

In turn, “PKA-RI (endogenous, human platelets) (from UniProt P10644 1-381) (natural protein)” gave a PLA dots per platelet (dots per platelet) in experiment [4] of 1.48.

As to “PKA-RIIα (endogenous, human platelets) (from UniProt P13861 1-404) (natural protein)”, the PLA dots per platelet (dots per platelet) in experiment [4] was found to be 1.01.

With “PKA-RIIβ (endogenous, human platelets) (from UniProt P31323 1-418) (natural protein)”, in experiment [4], the PLA dots per platelet (dots per platelet) was determined as 0.97.
